Test results reported in the supplement of paper PMC9170038.

Test system: MS2 coat protein
Assay: apparent KD of MS2 coat protein; higher = weaker reporter binding
Details: Eterna round: R107
Outline: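 Apparent KD per design is the median of normalised cluster binding-curve fits. Designed RNA switches transcribed on-chip from Illumina sequencing clusters were titrated with SNAP-549-labelled MS2 coat protein in twofold steps from 0.7 or 1.5 nM to 3 µM, with 0.8–1.5 h down to 10–20 min per step. Buffer: 100 mM Tris-HCl pH 7.5, 80 mM KCl, 4 mM MgCl2, without or with constant ligand.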

[1] = input ligand: theophylline 20 uM
[2] = input ligand: tryptophan 2.4 mM
[3] = input ligand: theophylline 2 mM

| Sequence | apparent KD of MS2 coat protein (input ligand: arginine 13.2 mM) [nM] | apparent KD of MS2 coat protein [1] [nM] | apparent KD of MS2 coat protein [2] [nM] | apparent KD of MS2 coat protein (input ligand: none) [nM] | apparent KD of MS2 coat protein [3] [nM] |
| --- | --- | --- | --- | --- | --- |
| AUCGUACCUAAUGAUACCAGCAAGUGAUCAUAACAUGAGGAUCACCCAUGUAAUCAGUGAUGCCCUUGGCAGCAUAAUCGAUACA [Same State - Theophylline B (Freestyle 3)] | 103 | 170 | 129 | – | – |
| AUGCACAUCAGAAGGAGCGUCUUGGCCAAUCUAGGCCAACAUGAGGAUCACCCAUGUGCAGGACAGGUAGGUCGCUGAUGUGUAG [Arg B SS t8] | 11.6 | 17.8 | 12.4 | 12.3 | 14.5 |
| AUGCAGAACACGGCCGCCACUCCAUGUAUACAUGAGGAUCACCCAUGUAAUUUGUAUUUUUUAUAGAGGACCGGGUGAAAUGCAA [JR_SSTryptoB_Sub012] | 26.7 | 38.7 | – | – | 42.9 |
| AUGCAUAGCGGAAGGAGCGCAAUAGAAUGACAUGAGGAUCACCCAUGUGUGUGAUGUGGGUUGCAGGUAGGUCGCCGAGUGGUAU [Exclusion - Arginine B (Freestyle 2)] | 84 | 128 | 90.5 | 92 | 108 |
| AUGCAUGUCAGAAGGAGCGUCUUUAACAUGAGGAUCACCCAUGUAACAUUGAAUUCGAUGAGACAGGUAGGUCGCUGAAUAGUAA [JR_SSArginiB_Sub020] | 21.1 | 72.3 | 42.9 | 82.8 | 62.5 |
| AUGCGCUAUAUGGAUACCAGUAUGAUAAUUGACAUGAGGAUCACCCAUGUGAGCUCUACCUACCCUUGGCAGCCAACCCUAUUUG [theeternabot_sameState_MS2_Theo_B_26] | 21.7 | 29.9 | 23 | – | – |
| AUGCGGUGCGGAAGGAGCGAGUUUGCCUAUUUACAUGAGGAUCACCCAUGUCCUAAUGGGACUCAGGUAGGUCGCCGUUGUUGCA [Same State Arginine B GF30] | 42 | 71.4 | 41.6 | 45 | 47.9 |
| AUGCUGACAAGGAGGUGUUCCUCAGCUGAUACCAGCCUGGAAACAGGCCCUUGGCAGCAGCACAUGAGGAUCACCCAUGUAAUAA [(T)'-(M)'-(T1)-(T2)-(M1)-(M2)_Design1(Mismatches)] | 56.5 | 517 | 33.4 | 27 | 12.4 |
| AUGGUCGACGAUCUGCGAAAAGCAGAUCGACGAGGACCGGUACGGCCGCCACUCGUGUUUAUUUAACAUGAGGAUCACCCAUGUA [#14Tryptophan A Same State] | 70.6 | 123 | – | – | 142 |
| AUGUAUGUCAGAAGGAGCGUCUUUAACAUGAGGAUCACCCAUGUAACAUUGAAUUCGAUGAGACAGGUAGGUCGCUGAAUAGUAA [SS-ArgB25] | 29.7 | 66 | 21.9 | 35 | 18.8 |
| AUGUCGUUGAAUAUAGCGGCUUGGAGUGAUACCAGUAUGAUCCAAUACCCUUGGCAGCAUAACAUGAGGAUCACCCAUGUUCCAG [SSTheo A #25] | 19.5 | 43.7 | 18.6 | – | – |
| AUGUCGUUGAAUAUAGCGGCUUGGUGUGAUACCAGAAUGAUCAAAUUCCCUUGGCAGCAUUACAUGAGGAUCACCCAUGUUUAGG [SSTheo A #18] | 18.6 | 30.2 | 29.3 | – | – |
| AUGUCGUUGAAUAUAGCGGCUUGGUGUGAUACCAGAAUGAUCUAAUUCCCUUGGCAGCAUUACAUGAGGAUCACCCAUGUUCAGG [SSTheo A #20] | 22 | 28 | 26.3 | – | – |
| AUGUUUGUGUGAGAUACCAGUGAGGCCACAUGAGGAUCACCCAUGUCCCUCACUCCGGCCCACCCUUGGCAGCUCUUAUAGAAAA [Exclusion Theophylline B GF 26] | 8.81 | 15.4 | 9.79 | – | – |
| AUUAACAUGAGGAUCACCCAUGUUUGUCUCCGAGGACCGGUACGGCCGCCACUCGCAGGUUGGAGUCGCUAUAUGGGCGUUCACU [theeternabot_sameState_MS2_Trp_A_42] | 31.7 | 53.5 | – | – | 64.9 |
| AUUAAGAAUAUGUAGACGGCGGAGAAGAGACGAGGACCGGUACGGCCGCCACUCGUGUUAGUUAACAUGAGGAUCACCCAUGUUA [#08 Tryptophan A Same State] | 11.9 | 14.1 | 11.8 | 12.1 | 12.6 |
| AUUAAUAGUUGUGAUACCAGACUUACAUGAGGAUCACCCAUGUUACUUAAGUGUUUUGAUGUCCCUUGGCAGCACUGUUUAGUUA [JR_SSTheophyB_Sub016] | 24.3 | 33 | 25 | – | – |
| AUUAUAGUUUAUAACGAAGUUGAUACAGAAGGAGCGGGAGUAAUCUCAGGUAGGUCGCUGAUAAUACAUGAGGAUCACCCAUGUG [#15 Same State - Arginine A] | 17.1 | 19.4 | 18.9 | 19 | 24.7 |
| AUUCAUGGAAACAUGACAUACAUAACCGGUCGAGGACCGGUACGGCCGCCACUCGGUUGGUGGCACAUGAGGAUCACCCAUGUUA [SS Tryp A #10] | 21.7 | 39.3 | – | – | 28.5 |
| AUUCAUGGAAACAUGACAUAGGGAUCUAUCCGAGGACCGGUACGGCCGCCACUCGCGUGGAGGCACAUGAGGAUCACCCAUGUUA [SS Tryp A #5] | 71.2 | 384 | – | – | 843 |
| AUUCUUUACUGAAGGAGCGUCAUUCUUACAUGAGGAUCACCCAUGUUUAUUCUUUAUUAUUGACAGGUAGGUCGCAGAUUUUUUA [JR_SSArginiB_Sub018] | 15.5 | 17.7 | 14.3 | 13.8 | 14.3 |
| AUUUACAUGGUCAUAUAUAUAUCGUCAGAUACCAGACUAGAUAUAGUCCCUUGGCAGCUGUUACAUGAGGAUCACCCAUGUUAUA [JR_Nu_ExcTheophyA_Sub019] | 41.8 | 95.8 | 109 | – | – |
| AUUUAUUAGACGGCCGCCACUUGAAAGAGACCUCAUAAAUGGGAACAUGAGGAUCACCCAUGUAAGAGGACCGGGUCUAGUAGAU [TryptB-ms2@45] | 55.2 | 497 | 610 | 567 | 1320 |
| AUUUGUACUUAGUGUUGAGUUCUGUCGGAAGGAGCGGAAUAUAAUCCAGGUAGGUCGCCGACAGACAUGAGGAUCACCCAUGUAA [#09 Exclusion - Arginine A] | 28.2 | 38.9 | 32.3 | 38.3 | 34.7 |
| CAAAAUUUAACGGCCGCCACUUACUCAUGAGGUAACAACAUGAGGAUCACCCAUGUUUGAGGAUCAAGGACCGGGUUAAAUUUUG [AstrosSSTry#20] | 26.6 | 33.9 | – | – | 30.7 |
| CAAGAACAGCCGAAUCUCGGCAGCUGAGAAGGAGCGCGAGAAGUCGCAGGUAGGUCGCUCAGGAAUACAUGAGGAUCACCCAUGU [Usaronen] | 32.4 | 45.9 | 27.9 | 28.4 | 46.8 |
| CAAUGCAGGUCGGCCGCCACUACACACAUGAGGAUCACCCAUGUAGUUACUGGGUGAAGUGGCAGUAGGACCGGGACCUGCAUAC [Brourdmod03] | 246 | 423 | 807 | 290 | 772 |
| CACAGUGCGAAAUUGAAACCGCACGAUCCUCGAGGACCGGUACGGCCGCCACUCGCGCGGGUCGUACAUGAGGAUCACCCAUGUC [Zaarmaqu] | 71.8 | 351 | – | – | 869 |
| CACAUGAGGAUCACCCAUGUCUGAACUGAAGGAGCGCUAAACAAGGCAGGUAGGUCGCGGAAUCGUGUGUGCAUAUGCACACGCG [9.V] | 13.6 | 17.9 | 16.5 | 22 | 31.3 |
